Data on three proteins can be found in paper doi:10.1101/2022.08.24.505078, “Cyclic AMP competitively inhibits periplasmic phosphatases to coordinate nutritional growth with competence development of Haemophilus influenzae” (bioRxiv, 2022).

The labels stand for the following.
B1: AphAEc-His6 (periplasmic acid phosphatase AphA of E. coli, signal peptide removed, C-terminal six-histidine tag) (enzyme, UniProt P0AE22 26-237, looked up)
chain: SSPSPLNPGTNVARLAEQAPIHWVSVAQIENSLAGRPPMAVGFDIDDTVLFSSPGFWRGKKTFSPESEDYLKNPVFWEKMNNGWDEFSIPKEVARQLIDMHVRRGDAIFFVTGRSPTKTETVSKTLADNFHIPATNMNPVIFAGDKPGQNTKSQWLQDKNIRIFYGDSDNDITAARDVGARGIRILRASNSTYKPLPQAGAFGEEVIVNSEY
notes: AphA, non-specific periplasmic acid phosphatase of E. coli, with the N-terminal signal peptide removed; also called AphA-His6; Ct His6 tagged AphAEc; source: E. coli, purified (Ni-NTA, size exclusion chromatography on Superdex 200 Increase); not shown: His6, C-terminal, kept
B2: His6-AphAEc (periplasmic acid phosphatase AphA of E. coli, signal peptide removed, N-terminal six-histidine tag) (enzyme, UniProt P0AE22 26-237, looked up)
chain: SSPSPLNPGTNVARLAEQAPIHWVSVAQIENSLAGRPPMAVGFDIDDTVLFSSPGFWRGKKTFSPESEDYLKNPVFWEKMNNGWDEFSIPKEVARQLIDMHVRRGDAIFFVTGRSPTKTETVSKTLADNFHIPATNMNPVIFAGDKPGQNTKSQWLQDKNIRIFYGDSDNDITAARDVGARGIRILRASNSTYKPLPQAGAFGEEVIVNSEY
notes: AphA, non-specific periplasmic acid phosphatase of E. coli, with the N-terminal signal peptide removed; also called Nt His6 tagged AphAEc; source: E. coli, purified (Ni-NTA, size exclusion chromatography on Superdex 200 Increase); not shown: His6, N-terminal, kept
B3: tag-less AphAEc (AphA of E. coli after removal of the N-terminal His6-SUMO tag by Ulp1) (enzyme)
chain: SPSPLNPGTNVARLAEQAPIHWVSVAQIENSLAGRPPMAVGFDIDDTVLFSSPGFWRGKKTFSPESEDYLKNPVFWEKMNNGWDEFSIPKEVARQLIDMHVRRGDAIFFVTGRSPTKTETVSKTLADNFHIPATNMNPVIFAGDKPGQNTKSQWLQDKNIRIFYGDSDNDITAARDVGARGIRILRASNSTYKPLPQAGAFGEEVIVNSEY
notes: AphA, non-specific periplasmic acid phosphatase of E. coli; protein of around 25 kDa after cleavage; The linker between SUMO and AphA was removed by mutagenesis; also called cleaved tag-less AphAEc; source: E. coli, purified as His6-SUMO-AphAEc, tag cleaved off with His6-Ulp1, size exclusion chromatography; not shown: His6-SUMO, N-terminal, cleaved

This data set deals with the molecule itself. As to the kind of experiment: SEC; purified protein on a Superdex 200 Increase 10/300 GL column; size read against standard proteins. On the technique in general: SEC sorts molecules by how far they enter the pores of the column.
The term stoichiometry N denotes the number of molecules, sites or subunits per partner or assembly. With B1, the “stoichiometry N” value was found to be 2.
With B2 the figure was 4.
B3: the “stoichiometry N” value came to 4.
